Target: the molecule itself
Assay: crystal structure; hanging-drop vapor diffusion at 20 °C; 10 mg/mL Pvg1p in 100 mM MOPS-NaOH pH 7.4 with 20 mM PEP and 5 mM pNP-β-Gal; well solution with 10 mM zinc chloride; 2.46 Å; dimer in the asymmetric unit

B1: fission yeast pyruvyltransferase Pvg1p (enzyme, Schizosaccharomyces pombe, UniProt Q9UT27 32-401, looked up)
chain: DLQTLKNPSSLTSPSSSTSVDKKKPLFTKSPRNSASCESTITLQSNLLFTYYKHYFAGIKKVALIGFPDHPNKGDSAIYVAEKKLLDALNIEVVYITAQEADYSASELKSIISDIPRDEFALAFHGGGNFGDLYPDHQHLRELVVRDFPSFTTISFPQSVWYNEQQLLEQASILYAENPNITLVTRDRQSYGFAVDAFGKHNEVLLTPDIVFFMGPIPEIREATPITHDVLILARLDHEGGQQHGAEDYYRDTLNAANLTYSVEDWLLWDPPVAQNPDSSFDDRGQARYEAGAEFLASARVVITDRLHAHILSTLMGIPHIVVENSQMGKITNYHNTWLHGCTLDGVSVVVDSVDKALSLLLEWNEAGYF
notes: Pvg1p, pyruvyltransferase of Schizosaccharomyces pombe; the D32-F401 portion (without the predicted N-terminal transmembrane region) was used for crystallization; disulfide bond C68-C373 seen in the crystal structure; Expression plasmid pET32b-pvg1; also called recombinant Pvg1p
  stoichiometry N: 2

Reference: PMC4872226, “A rationally engineered yeast pyruvyltransferase Pvg1p introduces sialylation-like properties in neo-human-type complex oligosaccharide” (Scientific Reports, 2016)
